In publication PMC6300308, “Linear Eyring Plots Conceal a Change in the Rate-Limiting Step in an Enzyme Reaction” (Biochemistry, 2018):
Where two headings read alike, the source gives them in different places.

T1: PaHBDH (Psychrobacter arcticus, UniProt Q4FRT2)
T1 construct: gene Psyc_1428; recombinant purified enzyme; cloning details only in supplement
T1 sequence (Q4FRT2 1-266): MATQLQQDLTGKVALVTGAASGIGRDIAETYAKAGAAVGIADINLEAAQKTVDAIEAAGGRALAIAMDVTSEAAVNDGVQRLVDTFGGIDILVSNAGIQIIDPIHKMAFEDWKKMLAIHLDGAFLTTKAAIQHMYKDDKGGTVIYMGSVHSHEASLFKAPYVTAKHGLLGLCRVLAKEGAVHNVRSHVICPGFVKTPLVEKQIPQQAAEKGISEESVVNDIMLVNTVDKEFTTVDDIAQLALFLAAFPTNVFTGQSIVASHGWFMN

T2: AbHBDH (Acinetobacter baumannii, UniProt A0A1E3M3N6)
T2 construct: gene AUO97_16470; recombinant purified enzyme; cloning details only in supplement
T2 sequence (A0A1E3M3N6 1-261): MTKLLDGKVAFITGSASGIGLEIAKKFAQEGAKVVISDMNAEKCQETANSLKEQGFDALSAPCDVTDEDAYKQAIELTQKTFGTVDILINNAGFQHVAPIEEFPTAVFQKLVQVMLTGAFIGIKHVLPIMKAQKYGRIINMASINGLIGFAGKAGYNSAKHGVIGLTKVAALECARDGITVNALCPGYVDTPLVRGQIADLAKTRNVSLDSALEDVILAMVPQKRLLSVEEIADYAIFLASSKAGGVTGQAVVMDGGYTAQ


Legend:
[1] = target: T1, PaHBDH; test: stopped-flow single-turnover kinetics, NADH limiting; type: biochemical; conditions: acetoacetate or 3-oxovalerate as co-substrate; 283 and 298 K
[2] = target: T2, AbHBDH; test: as above; type: biochemical; conditions: acetoacetate or 3-oxovalerate as co-substrate; 283 and 298 K
[3] = substrate: CC(=O)CC(=O)O; test: steady-state saturation curves; type: biochemical, Psychrobacter arcticus; conditions: co-substrate NADH; 283-318 K; 45.0 °C
From the text: (§1) steady-state saturation curves on PaHBDH | We measured saturation curves for AbHBDH and PaHBDH at various temperatures

[4] = substrate: CCC(=O)CC(=O)O; test: steady-state saturation curves; type: biochemical, Psychrobacter arcticus; conditions: co-substrate NADH; 283-318 K; 45.0 °C
From the text: as §1

[5] = substrate: NC(=O)C1=CN([C@@H]2O[C@H](COP(=O)(O)OP(=O)(O)OC[C@H]3O[C@@H](n4cnc5c(N)ncnc54)[C@H](O)[C@@H]3O)[C@@H](O)[C@H]2O)C=CC1; test: purified protein, by the assay type; parameters: steady-state saturation kinetics of NADH-dependent reduction by purified recombinant HBDH, 298 K
From the text: (§2) We measured saturation curves for AbHBDH and PaHBDH at various temperatures (283–330 K for AbHBDH and 283–318 K for PaHBDH) (Figure S2 and Tables S1–S4). […] Apparent steady-state catalytic constants (kcat) were used to construct Eyring plots for each enzyme (Figure 1). […] Accordingly, a significant negative ΔCp^⧧ is predicted for the psychrophilic enzyme but not for the mesophilic one (Table S6).

[6] = substrate: NC(=O)C1=CN([C@@H]2O[C@H](COP(=O)(O)OP(=O)(O)OC[C@H]3O[C@@H](n4cnc5c(N)ncnc54)[C@H](O)[C@@H]3O)[C@@H](O)[C@H]2O)C=CC1; test: purified protein, by the assay type; parameters: steady-state saturation kinetics of NADH-dependent reduction by purified recombinant HBDH, 298 K; remark: listed apart in the source
From the text: as §2

Molecule | stopped-flow single-turnover kinetics, NADH limiting [1] | stopped-flow single-turnover kinetics, NADH limiting [2] | Km [3] [µM] | kcat [3] [s⁻¹] | Km [4] [µM] | kcat [4] [s⁻¹] | Km [5] [µM] | kcat [5] [s⁻¹] | kcat/Km [5] [M⁻¹ s⁻¹] | Km [6] [µM] | kcat [6] [s⁻¹] | kcat/Km [6] [M⁻¹ s⁻¹]
NC(=O)C1=CN([C@@H]2O[C@H](COP(=O)(O)OP(=O)(O)OC[C@H]3O[C@@H](n4cnc5c(N)ncnc54)[C@H](O)[C@@H]3O)[C@@H](O)[C@H]2O)C=CC1 [NADH] | demonstrating NADH is saturated with PaHBDH and kSTO is unimolecular | demonstrating NADH is saturated with AbHBDH and kSTO is unimolecular | – | – | – | – | – | – | – | – | – | –
PaHBDH (Psychrobacter arcticus 273-4) (protein, recombinant purified enzyme; cloning details only in supplement) MATQLQQDLTGKVALVTGAASGIGRDIAETYAKAGAAVGIADINLEAAQKTVDAIEAAGGRALAIAMDVTSEAAVNDGVQRLVDTFGGIDILVSNAGIQIIDPIHKMAFEDWKKMLAIHLDGAFLTTKAAIQHMYKDDKGGTVIYMGSVHSHEASLFKAPYVTAKHGLLGLCRVLAKEGAVHNVRSHVICPGFVKTPLVEKQIPQQAAEKGISEESVVNDIMLVNTVDKEFTTVDDIAQLALFLAAFPTNVFTGQSIVASHGWFMN | – | – | 110 ± 10 | 86 ± 4 | 36 ± 2 | 5.9 ± 0.1 | 30 ± 10 | 86 ± 4 | 2.7e+06 ± 700000 | 3.4 ± 0.4 | 5.9 ± 0.1 | 1.7e+06 ± 800000
